Source: IntAct's records for PubMed 19661922

B1: 5-hydroxytryptamine receptor 4 (Mus musculus), P97288 (parent)
chain: MDKLDANVSSNEGFRSVEKVVLLTFLAVVILMAILGNLLVMVAVCRDRQLRKIKTNYFIVSLAFADLLVSVLVMPFGAIELVQDIWAYGEMFCLVRTSLDVLLTTASIFHLCCISLDRYYAICCQPLVYRNKMTPLRIALMLGGCWVLPMFISFLPIMQGWNNIGIVDVIEKRKFSHNSNSTWCVFMVNKPYAITCSVVAFYIPFLLMVLAYYRIYVTAKEHAQQIQMLQRAGATSESRPQPADQHSTHRMRTETKAAKTLCVIMGCFCFCWAPFFVTNIVDPFIDYTVPEQVWTAFLWLGYINSGLNPFLYAFLNKSFRRAFLIILCCDDERYKRPPILGQTVPCSTTTINGSTHVLRDTVECGGQWESRCHLTATSPLVAAQPSDT

Columns and labels:
[1] = variants of: B1; settings: with grk5_human GRK5, P34947
[2] = variants of: B1; settings: with grk5_human GRK5, P34947; remark: listed apart in the source

Chain of grk5_human GRK5, P34947 (P34947 whole entry, looked up): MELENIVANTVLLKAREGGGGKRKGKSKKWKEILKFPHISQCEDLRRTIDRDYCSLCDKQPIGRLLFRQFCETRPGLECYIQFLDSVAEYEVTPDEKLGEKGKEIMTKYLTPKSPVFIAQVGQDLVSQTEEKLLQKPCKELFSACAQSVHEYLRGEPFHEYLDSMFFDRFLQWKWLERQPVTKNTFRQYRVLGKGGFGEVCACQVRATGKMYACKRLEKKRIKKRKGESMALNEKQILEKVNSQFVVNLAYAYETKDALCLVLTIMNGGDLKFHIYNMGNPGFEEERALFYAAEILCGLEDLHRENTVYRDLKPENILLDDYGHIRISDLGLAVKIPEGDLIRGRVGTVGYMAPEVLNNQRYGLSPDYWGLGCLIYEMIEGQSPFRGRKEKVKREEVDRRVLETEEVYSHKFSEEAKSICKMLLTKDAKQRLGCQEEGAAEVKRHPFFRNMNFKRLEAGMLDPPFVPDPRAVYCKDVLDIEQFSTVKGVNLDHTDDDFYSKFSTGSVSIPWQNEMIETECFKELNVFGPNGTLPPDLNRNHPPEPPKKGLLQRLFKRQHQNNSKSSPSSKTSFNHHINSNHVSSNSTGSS

| effect of a mutation on the interaction [1] | effect of a mutation on the interaction [2] | Variant |
| --- | --- | --- |
| decreasing interaction | disrupting interaction | MDKLDANVSSNEGFRSVEKVVLLTFLAVVILMAILGNLLVMVAVCRDRQLRKIKTNYFIVSLAFADLLVSVLVMPFGAIELVQDIWAYGEMFCLVRTSLDVLLTTASIFHLCCISLDRYYAICCQPLVYRNKMTPLRIALMLGGCWVLPMFISFLPIMQGWNNIGIVDVIEKRKFSHNSNSTWCVFMVNKPYAITCSVVAFYIPFLLMVLAYYRIYVTAKEHAQQIQMLQRAGATSESRPQPADQHSTHRMRTETKAAKTLCVIMGCFCFCWAPFFVTNIVDPFIDYTVPEQVWTAFLWLGYINSGLNPFLYAFLNKSFRRAFLIILCCADERYKRPPILGQTVPCSTTTINGSTHVLRDTVECGGQWESRCHLTATSPLVAAQPSDT [D330A] |
| decreasing interaction | disrupting interaction | MDKLDANVSSNEGFRSVEKVVLLTFLAVVILMAILGNLLVMVAVCRDRQLRKIKTNYFIVSLAFADLLVSVLVMPFGAIELVQDIWAYGEMFCLVRTSLDVLLTTASIFHLCCISLDRYYAICCQPLVYRNKMTPLRIALMLGGCWVLPMFISFLPIMQGWNNIGIVDVIEKRKFSHNSNSTWCVFMVNKPYAITCSVVAFYIPFLLMVLAYYRIYVTAKEHAQQIQMLQRAGATSESRPQPADQHSTHRMRTETKAAKTLCVIMGCFCFCWAPFFVTNIVDPFIDYTVPEQVWTAFLWLGYINSGLNPFLYAFLNKSFRRAFLIILCCDAERYKRPPILGQTVPCSTTTINGSTHVLRDTVECGGQWESRCHLTATSPLVAAQPSDT [D331A] |
| decreasing interaction | disrupting interaction | MDKLDANVSSNEGFRSVEKVVLLTFLAVVILMAILGNLLVMVAVCRDRQLRKIKTNYFIVSLAFADLLVSVLVMPFGAIELVQDIWAYGEMFCLVRTSLDVLLTTASIFHLCCISLDRYYAICCQPLVYRNKMTPLRIALMLGGCWVLPMFISFLPIMQGWNNIGIVDVIEKRKFSHNSNSTWCVFMVNKPYAITCSVVAFYIPFLLMVLAYYRIYVTAKEHAQQIQMLQRAGATSESRPQPADQHSTHRMRTETKAAKTLCVIMGCFCFCWAPFFVTNIVDPFIDYTVPEQVWTAFLWLGYINSGLNPFLYAFLNKSFRRAFLIILCCDDARYKRPPILGQTVPCSTTTINGSTHVLRDTVECGGQWESRCHLTATSPLVAAQPSDT [E332A] |
